The values that follow come from the nanobody polyreactivity screen of Harvey et al. (2022).

The series is described as follows: yeast display, Sf9 membrane polyspecificity reagent, FACS + sequencing; frameworks hold sequencing errors. The method, boiled down: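 In a synthetic yeast display library (Saccharomyces cerevisiae BJ5465), nanobody expression was induced with galactose for 36–48 hours. FACS gates were set low and high (top ~1%) using anti-HA fluorescence for expression and streptavidin fluorescence for binding of the Sf9 membrane reagent. Each polyreactivity label is drawn from the gate of origin.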
In the case of “QVQLEESGGGLVQAGGSLRLSCAASGYTFRPYAIGWYRQAAGKERVLVAAISRSGGRTYYADSVKGRFTISRDNAKNTVYLQMNSLIPEDTAVYYCAADRFSLSGFDSWGQGTQGTVSS”, the “polyreactivity (PSR sort gate)” value is given as “low polyreactivity”.
As for “QVQLVESGGGLVQEGGSLRLSCAASGSIFPLYDMGWYRQAPGKERELVAGISSGGSTNYADSVKGRFTISRDNAKNTVYLQMTSLKPEDTAVYYCAATGSSRYGYWGQGTQVTVSS”, the “polyreactivity (PSR sort gate)” value was “low polyreactivity”.
Consider “QVQLVESGGGLVQAGGSLRLSCAASGSIFWYNAMGWYRQAPGKERELVAAISRSGSRTYYADSVKGRFTISRDNAKNTVYVQMTSLKPEATAVYYCARVRPRGLYFVLHYDYWGQGTQVTVSS”, for which the “polyreactivity (PSR sort gate)” value is “high polyreactivity”.
For the sequence “QVQLVESGGGLVQAGVSLRLSCAASGRIFPSYAMGWYRQAPGKEREMVAAITSSDSTYYADSVKGRFTISRDNAKNTVYLQMNSLKPDDTAVYYCAAAYSYSGWWWFGYWGQGTQVTVSS”, the “polyreactivity (PSR sort gate)” value is reported as “high polyreactivity”.
On to “QVQLVESGGGLVQAGGSLRLSCAASGSIFPGNAKGWYRQAPGKERELVASINWSGGSTYYADSVKGRVTISRDNAKNTVYVQMNSLKPEDTAGYYCNARAFRQGHVEYDYWGQGTQVTVSS”, for which the “polyreactivity (PSR sort gate)” value was “low polyreactivity”.
Regarding “QVQLVDSGGGLVQAGGSLRLSCAASGFIFSWYAMGWYRQAPGKERELVAAINWSGGSTYYADSVKGRFTISRDNAKNTVYLQMNSLKPEDTAVYYCAAVTSGISKYDYWGQGTQVTVSS”, the “polyreactivity (PSR sort gate)” value is “high polyreactivity”.
Consider “QVQLVESGGGLVQAGGSLRVSCAASGRTCRYYAMGWYRQEHGTEREWVAVISWSGGTTRYADSVKGRFTISRDNAKNTVYIQMNSLKPEDTAVYYCAARVSVWYNYWGQGTQVTVSS”, for which the “polyreactivity (PSR sort gate)” value is on record as “high polyreactivity”.
As to “QVQLVESGGGLVQAGASLRLSCAASGITFDPNAMGWYRQAPGKERELVAAISTRGGSTYYADSVKGRFTISRDNAKNTVYLQMNSLKPEETAVYYCNALRTGRWFDYWGQGTQVTVSS”, the “polyreactivity (PSR sort gate)” value is listed as “high polyreactivity”.
In the case of “QVQLVESGGGLVQAGGSLRISCAASGRIFAGYSMGWYRQAPGKERELVAAIRTRGGSTYYADSVKGRFTISRDKAKNTVYLQMNSLKPEDTEVYYCAATPTWYIWYTYDYWGQGPQVTVSS”, the “polyreactivity (PSR sort gate)” value is given as “high polyreactivity”.
On to “QVQLVESGGGLVQAGGTLRLSCAASGRTLGANALGWYRQAPGKERELVAAITQSGSSTYYADSVKGRFTISRDNAKNTVYLQMNSLKPEDTAVYYCAAEWNVVLAGAVYFRYNYWGQGTQVNVSS”, for which the “polyreactivity (PSR sort gate)” value is listed as “low polyreactivity”.
Turning to “QVQLEESGGGLVQAGGSLRLSCAASGSTFDRNTMGWYRQAPGKERELVAAITWSSGSTYYADSVKGRFTISRDNAKNTVYLQMNSLKPEDTAVYYCAADPIRYRSRHKYGYWGQGTQVTVSS”, the “polyreactivity (PSR sort gate)” value is “low polyreactivity”.
As for “QVQLVESGGGIVQAGGSLRLSCAASGRTFRSNVMGWYRQAPGKERELVAAISWRGGNTHYADSVKGRFTISRDNAKNTVYLQMNSLKREDTAVFYCAARVTSRRDPDQIHGYWGQGTQVTVSS”, the “polyreactivity (PSR sort gate)” value was “high polyreactivity”.
Under “QVQLVESGGGLVQAGGSLRLSCAASGSTFSYNAMGWYRQAPGKERELVAAIDRSVSTNYADSVKGRFTISRDNAKNTVYLQMNSLKTEDTAVYYCNARHPTDDIVIYDYWGQGTQVTVSS” stands “low polyreactivity”.
On to “QVQLVESGGGLVQAGGSLRLSCAASGSIFYRYAMGWYRQAPGKERELVAAIRWSGGSTYYADSVKGRFTISRDNAKNTVYLQMNSLKPEDTAVYYCNGTWAYRGHGYWGQGTQVTVSS”, for which the “polyreactivity (PSR sort gate)” value is on record as “low polyreactivity”.
To “QVQLVESGGGLVQAGGSLRFSCAASGSTFGTYAMGWYRQAPGKERELVAAISWSGGSTYYADSVKGRFTISRDNAKNTVYLQMNSLKPEDPAVYWGQGTQVTVSS” belongs “low polyreactivity”; to “QVQLVESGGGLVQAGGSLRLSCAASARTFGVYAMGWYRQAPGKERELVAAISKSDGSTYYADSVKGRFTISRDNAKITVYLQMNSLKPEDTAVYYCATVTLHQRDTQDDFWGQGTQVTVSS”, “low polyreactivity”.
As for “QVQLVESGGGLVQAGGSLRLSCAASGSTFVRNARGWYRQAPGKERELVAAISRSGGRTYYADSVKGRFTISRDNAKNTVYLQMNSLKPEDTAVYYCAADGKSGYDYWGQGTQVTVSS”, the “polyreactivity (PSR sort gate)” value was “high polyreactivity”.
To “QVRLVESGGGLVQAGGSLRLSCAASGRILQVYAMGWYRQAPGKERELVAGIRSSGGRTYYADSVKGRFTISRDNAKNTVSLQMNSLKPEDTAVYYCAADQDWYGFVIGFDYWGQGTQVTVSS” belongs “low polyreactivity”; to “QVQLVESGGGLVQAGGSLRLSCAASGRTFYYYAMGWYRQAPGKERELVAAISKSGGSTYYADSVKGRFTISRDNAKNTVYLQMNSLKPEDTAVYYCAALTTHAPHSYNYWGQGTQVTVSS”, “low polyreactivity”.
To “QVQLVDSGAGLVQAGGSLRLSCAASGRIFYSYAMGWYRQAPGKDRELVARITRGSSTYYADSVKGRFTISRDNAKNTVYLQMNSLKPEDTAVYYCAKSRYTALTNHWSHDYWGQVTQVTVSS” belongs “low polyreactivity”; to “QVQLVESGGGLVQEGGSLRLSCAASGNMLGTYAMGWYILAPGIEREFVAAISSSVGSTYYADSVKGRFTISRDNAKNSVYLQMNILKPEDTAVYYCAARKYQIYEKWGYLYDYWGQGTQVTVSS”, “low polyreactivity”; to “QVQLVESGGGLVQAGGSLRLSCAASGSIFGFNAMGWYRQAPGTERELVAAITWSGVSTYYADSVKGRFTISRDNAKNTVYLQMNSLKPEDTAVYYCAADVIIDWWYEMDYWGQGTQVTVSS”, “high polyreactivity”.
To “QVQLVESGGGLVQAGGSLRFSCADSGRTFRYYAMGWDIQARGKERELVAAISRGGRTNYGDSVKGRFTISRDNAKNTVYIQMNSLKPVDTAVYYCAVGGYSYYTVGYDYWGQGTQVTVSS” belongs “high polyreactivity”; to “QVQLVESWVGLVQAGGSLRLSCAASGNTFKYYDMGWYRQAPGKERELVATISRTAGSTYYADSVKGRFSISRDYAKNTVYLQMNSLKPEDTAVYYCNKDRGHPFKYDYWGQGTQVTVSS”, “low polyreactivity”.
“QVHLVESGGGLVQAGGSLRLSCAASGSTSRTYAMGWNRPQPGKERELVAAISSSGGRTTYADSVKGRFTFSRDNAKNTVSLQMNSLKPEDTAVYYCNARTYSYRGYNYWGQGTQVTVSS”: the “polyreactivity (PSR sort gate)” value was “high polyreactivity”.
In the case of “QVQLVESGGGLVQAGGSLRLSCAASGYFDLNAMGWYRQAPGKERELVAAITDGGSTNYADSVKGRFTISRDNAKNTVYLQMNSLKPEDTAVYYCAADRGHTILHGGYWGQGTQVTVSS”, the “polyreactivity (PSR sort gate)” value is given as “low polyreactivity”.
Under “QVQLVESGGGLVQAGGSLRLSCADSGRTFNYYDMGWYRQAPGKERELVASITGSGGNTYYADSVKGRFTFSRDNAKNTVYLQMNSLKPEDTAVYYCAKAIGNFLYYYWLYHSSYEYDYWGQGTQVTVSS” stands “low polyreactivity”.
With “QVQLVESGGGLVQAGGSLRLSCAASGFTFYYYAMGWSRQAPGKERELVASISKRGGTYYADSVKGRFTISRDNAKNTVYLQMNSLKPEDTAVYYCAAGIPRQAYKFYWGQGTQVTVSS”, the “polyreactivity (PSR sort gate)” value is recorded as “high polyreactivity”.
With “QVQLVESGGVLVQAGGSLRLICAASGSIFNRYAMGWYRHAPGKDRELVAAISRSGGRTYYADSVKGRFTISRDNAKNTVYLQMNSLKPEDTAVYYCAADKYYRQHEYDYWGQGTQVTVSS”, the “polyreactivity (PSR sort gate)” value was “high polyreactivity”.
Turning to “QVQLVESGGGLVQAGGSLRLSCAPAGRTFNGYAMGWYRQAPGKERELVASITLRGGSTYYADSVKGRFTISRDNAKNTVYLQMNSLKPEDTAVYYCNARPHTRRYTFTYGYWGQGTQVTVSS”, the “polyreactivity (PSR sort gate)” value is reported as “high polyreactivity”.
For the sequence “QVQLVESGGGLVQAGGSLRLSCAASGRTFRVYAMGWYRQAPGKERELVAAIRSGGNTNYADSVKGRFTISRDNAKNTVYLQMNSLKPEDTAVYYCAATTYVVASRYVGTLGDDYWGQGTQVTVSS”, the “polyreactivity (PSR sort gate)” value was “high polyreactivity”.
Regarding “QVQLVESGGGLVQAGGSLRLSCAASGSTFHNYAMGWYRQAPGKERELVAGISVRGGGTYYADSVKGRFTISRDNAKNTVYLQMNSLKPEDTAVYYCAPDFYWFWTYGTLWYGYEYWGQGTQVTVSS”, the “polyreactivity (PSR sort gate)” value is reported as “high polyreactivity”.
Consider “QVQLVESGGGLVQAGGSLRLSCAASGFTFCDYAKGWYRQATGKERELVAAISDNDGSTDYADSVKGRFTISRDNAKNTVYLQMTRLKPEDSAVYYCNAESELPSKEGDYWGLGTQVTVSS”, for which the “polyreactivity (PSR sort gate)” value is given as “low polyreactivity”.
“QVQLVESGGGLVQAGGSLRLSCAASGSIFADYAMGWYRQAPGKERELVAAITASGGTTYYADSVKGRFTISRDNAKNTVYVQMNSLKPEDTAVYYCNAGNRTFLYDRDDYWGQGTQVSVSS”: the “polyreactivity (PSR sort gate)” value is on record as “high polyreactivity”.
On to “EEELVESGGGLVQAGGRLRLSCAASGRIFDYNAMGWYRQAPAKQRELVAVIDYSGDSTYYADSVKGRFTISRDNAKNTVYLQLISLKPEDTAVYYCNADSRYSYSDYGYWGQGTQVNVSS”, for which the “polyreactivity (PSR sort gate)” value was “low polyreactivity”.
As for “QVQLVESGGGLVQAGGSLRITCAASGSILFAKSMGWYRQAPGKERELVADIRGSGSTYYADSVKGRFTISRDNAKNTVYLQMNSLKPEDTAVYYCAKRHLISIPDYGRHEYYYWGQGTQVTVSS”, the “polyreactivity (PSR sort gate)” value is reported as “low polyreactivity”.
With “QVQLVESGGRLVQAGGSLRLSCAASGFIFEWNAKGWYRQAPGKERELVASITFGGGNTYYADSVKGRFTISRDYAQNTDYLQMNSLKPEDTAVYYCAVDYGYWRDSIALGEFDYWGQGTQVTVSS”, the “polyreactivity (PSR sort gate)” value is on record as “low polyreactivity”.
Under “QVQLVESGRGLVQEGGSLRLSCAASGSTFEPYAMGWYRQAPGKERELVAAITLTAGSTYYADSVKGRFTISRDNAKNTVYLQRNSLKPEDTAVYYCAAEFWLVEDDYWGQGTQVTVSS” stands “low polyreactivity”; under “QVQLVESGGGLVQAGGRLRLSCAASGFIFSNYAMGWYRQAPGKERELVAAISKSGGGTSYADSVKGRFTISRDTAMNTVYLQMNSLKPEDPAGYYCAARVRQIRVDYWGQGTQVTVSS”, “high polyreactivity”.
In the case of “QVQLVESVGGLVQAGGSLRLSCAASGSIFYNNAMGWYRQAPGKDRELVAAIRSTGTRTYYADSVKGRFTISRDHAKNTVYLQMNSLKAEDTAVYYCAVGDYGLWSYDYWGQGTQLTVSS”, the “polyreactivity (PSR sort gate)” value is reported as “low polyreactivity”.
On to “QVQLVESGGGLVQAGGSLRLSCAASGITFIYYAMGWYRQAPGKERELVAAISRSGGSTYYADSVKGRFTISRDNAKNTVYLQMNSLKPEDTAVYYCAADGTKFSGRVTGDYWGQGTQVTVSS”, for which the “polyreactivity (PSR sort gate)” value was “high polyreactivity”.
